The values below come from patent publication US20100239568A1, “DIAGNOSTICS AND TREATMENTS FOR TUMORS” (GENENTECH, INC., priority 2006, published 2010).

One experiment deals with HUVEC cells. Briefly: HUVEC proliferation assay. The experiment is classed as cell-based, human. The settings on record: found in high salt fraction of EL4 and L1210 tumor lysates. How it is done:
HUVEC proliferation assay: HUVEC at passage less than 8 were used in the study. Day 1: 3000 cells/well (96-well plate) were plated onto 1% gelatin-coated plate in the assay media (DMEM:F12 50:50) with 1.5% FBS. Day 2: Media was changed and cells were treated with various growth factors or conditioned media. Day 3: ^3H-thymidine was added at 0.5 μCi/well. Day 4: 250 mM EDTA/well was added to stop the reaction in the morning. Cells were harvested onto 96-well filter plate and washed with water 3 times. ^3H samples were counted with TOPCOUNT liquid scintillation counter.

Another experiment concerns monocytes. As to the kind of experiment: Monocyte migration assay. The experiment is classed as cell-based, human. As to conditions: found in high salt fraction of EL4 and L1210 tumor lysates. How it is done: Monocyte migration assay: Step 1: isolation of monocyte from human PBMC. Blood was diluted with PBS 1:1 (v/v). The diluted blood was slowly added on top of Ficoll and centrifuged at 3000 rpm for 15 min at room temperature (RT) without break. Plasma was removed and white cells were collected (9˜5 ml interphase). Cells were washed in migration buffer containing PBS with 0.5% BSA (low in endotoxin), spun at 1850 rpm (9˜800 g) for 10 min at RT and cells were counted. Step 2: Magnetic labeling of cells. Cell pellet was resuspended in MACS buffer containing PBS with 0.5% BSA (low in endotoxin) and 2 mM EDTA, 30 μl per 10^7 cells. FcR blocking reagent and Biotin-antibody cocktails were added and mixed well. The cells were then incubated for 10 min at 4° C. after which 30 μl more MACS buffer per 10^7 cells was added and anti-biotin Microbeads was added. This was mixed well and incubated for 10 min at 4° C. Cells were washed with MACS buffer by adding 10-20 fold more of the labeling volume, spun at 300g (1250 rpm) for 10 min. Cells were resuspended in up to 10^8 cells in 2 ml buffer. Step 3: Magnetic separation with LS columns. LS column (Miltenyi Biotec) was placed in the magnetic field holder. Column was rinsed with MACS buffer. Cell suspension was applied to the column. Unlabelled flow was collected, which represents enriched monocyte fraction. […]

B1: bFGF: growth factor found in the high salt fraction of resistant tumor lysates (protein, UniProt P15655 10-154, looked up)
Fibroblast growth factor 2: PALPEDGGAAFPPGHFKDPKRLYCKNGGFFLRIHPDGRVDGVREKSDPHVKLQLQAEERGVVSIKGVCANRYLAMKEDGRLLASKCVTEECFFFERLESNNYNTYRSRKYSSWYVALKRTGQYKLGSKTGPGQKAILFLPMSAKS
For B1, the “proliferation of HUVEC cells” value with HUVEC cells is reported as “contribute to the proliferation of HUVEC cells”. Besides, the chemotactic activity entry with monocytes is listed as “not chemotactic activity”.
